Measured values: patent US20220411525A1, “BCMA AS A TARGET FOR T CELL REDIRECTING ANTIBODIES IN B CELL LYMPHOMAS” (Janssen Pharmaceutica NV, priority 2021, published 2022)

Target: B cell maturation antigen (BCMA) (human) (UniProt Q02223)
Experiment: cell-based or functional assay

Sequence of B cell maturation antigen (BCMA) (human) (Q02223 whole entry): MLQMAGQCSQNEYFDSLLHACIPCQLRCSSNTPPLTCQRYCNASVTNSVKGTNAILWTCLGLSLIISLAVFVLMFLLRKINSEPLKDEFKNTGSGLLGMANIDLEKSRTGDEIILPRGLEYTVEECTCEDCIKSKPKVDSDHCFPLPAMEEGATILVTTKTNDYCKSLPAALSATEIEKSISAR

- average lysis of primary CLL cells, HD PBMCs 10:1 E:T, 48 h, 100 ng/mL, no γ-secretase inhibitor (first T cell donor): 12.9%
- average lysis of primary CLL cells, HD PBMCs 10:1 E:T, 48 h, 100 ng/mL, no γ-secretase inhibitor (second T cell donor): 16.4%
- average lysis of primary CLL cells, HD PBMCs 10:1 E:T, 48 h, 100 ng/mL, with 100 nM γ-secretase inhibitor (first T cell donor): 14.9%
- average lysis of primary CLL cells, HD PBMCs 10:1 E:T, 48 h, 100 ng/mL, with 100 nM γ-secretase inhibitor (second T cell donor): 21.6%
- lysis of primary CLL cells by HD CD8+ T cells, 5:1 E:T, 96 h, 100 ng/mL: < 60%
- mean lysis of primary CLL cells by autologous CLL derived T cells, 5:1 E:T, 96 h, 100 ng/mL: 40%
Substance: BCMAxCD3 DuoBody Teclistamab (JNJ-64007957) (bispecific antibody)
- average cell death of primary CLL cells, HD PBMCs 10:1 E:T, 96 h, 100 ng/mL, no γ-secretase inhibitor (first T cell donor): 15.8%
- average cell death of primary CLL cells, HD PBMCs 10:1 E:T, 96 h, 100 ng/mL, no γ-secretase inhibitor (second T cell donor): 20%
- average cell death of primary CLL cells, HD PBMCs 10:1 E:T, 96 h, 100 ng/mL, with 100 nM γ-secretase inhibitor (first T cell donor): 25.8%
- average cell death of primary CLL cells, HD PBMCs 10:1 E:T, 96 h, 100 ng/mL, with 100 nM γ-secretase inhibitor (second T cell donor): 27.4%
